Reference: the supplement of paper PMC9732359
± gives the uncertainty stated by the source.

Assay: protein stability index of a GFP-peptide fusion (yeast GPS) (PSI 1-4); higher = more stable; sorted into four equal gates, so the index is relative within each strain
Method in brief: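 For each peptide, the protein stability index sums the read frequency in every gate after multiplying it by the gate number. Read frequencies came from plasmids that were PCR-amplified from each gate and Illumina-sequenced, with reads assigned to strains by barcodes. The gates were four equal bins of GFP/Cherry fluorescence ratio applied to mid-log yeast in leucine-free medium carrying a pooled library of tiled 17-residue yeast protein peptides fused downstream of GFP on a Cherry-expressing plasmid.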

Sequence	protein stability index (doa10∆)	protein stability index (pdr5∆)	protein stability index (san1∆)	protein stability index (ubr1∆)
ARLDGHDFLFNTIIRDG [RPN14]	2.83 ± 0.091	2.95 ± 0.06	3.32 ± 0.056	2.81 ± 0.044
ARNLIEDEDDGESEKSS [RPC53]	3.06 ± 0.12	3.68 ± 0.18	–	3.29 ± 0.11
ARRRQPTDQNNQSNLNG [SNF2]	2.88 ± 0.12	3.25 ± 0.19	3.11 ± 0.07	3.24 ± 0.16
ARVTGGMKVKADRDESS [RPS14B]	2.5 ± 0.072	2.92 ± 0.067	3.12 ± 0.05	3.03 ± 0.043
ARYNWICDPVHKHREAR [RPL15A]	3.51 ± 0.12	2.81 ± 0.13	2.98 ± 0.12	3.22 ± 0.096
ASAKSVRSGVSKSAPSK [YAR002W/NUP60]	2.96 ± 0.078	2.92 ± 0.1	2.96 ± 0.064	2.99 ± 0.056
ASITGTGSNDRCIGDSD [YMR129W/POM152]	3.11 ± 0.083	2.78 ± 0.12	2.35 ± 0.11	2.88 ± 0.1
ASKGRTKIDMPIKNRKN [BRN1]	3.21 ± 0.11	3.13 ± 0.088	2.91 ± 0.12	3.17 ± 0.1
ASKSKKKFNMGKEFEAR [RPC53]	3.33 ± 0.085	3.14 ± 0.12	3.27 ± 0.073	3.4 ± 0.081
ASKVLLKIFLYLESLFA [IRR1]	–	–	2.02 ± 0.24	–
ASLALAHVFVGTCNGDI [RPN1]	2.48 ± 0.059	2.61 ± 0.054	2.43 ± 0.077	2.58 ± 0.074
ASLKIKNATDLQQAKLR [SMC3]	3.11 ± 0.12	2.96 ± 0.11	2.93 ± 0.13	3.09 ± 0.095
ASLKKMEETEQKKIQIN [SMC3]	2.33 ± 0.22	1.82 ± 0.076	3.1 ± 0.13	2.23 ± 0.11
ASNEVIAKSRYWYFLQK [RPL20A]	2.19 ± 0.054	2.66 ± 0.066	2.58 ± 0.063	2.72 ± 0.058
ASRSQLEKGEIELSDGS [YJL039C/NUP192]	3.06 ± 0.081	3.02 ± 0.072	2.8 ± 0.07	3 ± 0.042
ASVEIVFHDPDHSMILP [SMC3]	2.26 ± 0.11	2.54 ± 0.12	2.98 ± 0.15	2.65 ± 0.079
ASYLTPLLEAKKLVWPL [SSN2]	2.13 ± 0.14	2.04 ± 0.066	2.86 ± 0.15	2.71 ± 0.084
ATAEKLPNIYPSTRCKL [RPT2]	2.14 ± 0.096	1.66 ± 0.091	2.04 ± 0.1	2 ± 0.1
ATEKKSSSPLAMSETLS [PRE8]	2.33 ± 0.076	2.77 ± 0.068	2.44 ± 0.1	2.39 ± 0.055
ATEVTPQEPKHIQEEEE [RPC19]	3.24 ± 0.081	3.23 ± 0.09	3.14 ± 0.056	3.37 ± 0.079
ATFTSIELTSYESIATY [RPN7]	1.75 ± 0.038	1.9 ± 0.04	1.77 ± 0.046	1.77 ± 0.025
ATGKKSRGINKGHKFNN [RPL15A]	2.5 ± 0.24	2.69 ± 0.13	2.34 ± 0.12	2.17 ± 0.13
ATIRETYEIICDQTKSV [RRP43]	2.87 ± 0.06	3 ± 0.065	2.8 ± 0.063	2.98 ± 0.045
ATKEGVVLGVEKRATSP [PUP2]	2.72 ± 0.14	3.14 ± 0.087	3.15 ± 0.083	3.19 ± 0.053
ATLQSNEPTQKDEEETE [DSN1]	3.21 ± 0.16	3.18 ± 0.12	3.17 ± 0.1	2.79 ± 0.1
ATPIPEEVQQAQTEIKL [RPS5]	2.82 ± 0.11	2.89 ± 0.1	2.97 ± 0.096	3.05 ± 0.11
ATSTNPAKSASARGSYL [RPL17A]	2.25 ± 0.033	2.59 ± 0.038	2.53 ± 0.038	2.66 ± 0.029

Sequence	protein stability index (doa10∆)	protein stability index (pdr5∆)	protein stability index (san1∆)	protein stability index (ubr1∆)
AVAGLTADAEILINTAR [PRE9]	2.98 ± 0.11	3.02 ± 0.088	3.07 ± 0.1	3.09 ± 0.078
AVEKTLALGCHFQDQKN [POP7]	2.42 ± 0.12	3.12 ± 0.11	2.87 ± 0.078	2.78 ± 0.096
AVFIVPKILIREHERVI [SWP82]	1.7 ± 0.085	2.06 ± 0.097	1.69 ± 0.15	2.1 ± 0.19
AVGNLGNAIEVTEDGSI [RPL22B]	1.16 ± 0.13	1.45 ± 0.098	1.24 ± 0.19	1.27 ± 0.05
AVSAASVVSMSNDVLKP [SIR2]	2.5 ± 0.048	3.11 ± 0.064	2.82 ± 0.063	2.75 ± 0.04
AVSIETALEHKVVNGNS [FAS2]	2.14 ± 0.18	1.37 ± 0.1	1.34 ± 0.12	1.4 ± 0.051
AVYETLISRMIFIATQL [BRR2]	1.96 ± 0.072	1.55 ± 0.058	1.29 ± 0.096	1.62 ± 0.041
AYFLIIVPVISTIENVL [COB]	1.52 ± 0.057	1.75 ± 0.045	1.92 ± 0.059	2.12 ± 0.07
AYNKKSTISAREIQTAV [HTB1]	2.5 ± 0.1	3.03 ± 0.089	2.98 ± 0.12	2.92 ± 0.13
AYVAIEQVKDDGTSTEK [RPN8]	2.48 ± 0.16	1.73 ± 0.13	3.23 ± 0.15	2.64 ± 0.085
CAERVKIQQQQPGYADL [QCR6]	3.29 ± 0.13	2.99 ± 0.19	–	3.09 ± 0.27
CDDESGDNEYITLRTSG [MCD1]	3.29 ± 0.16	3.29 ± 0.099	3.04 ± 0.072	3.47 ± 0.061
CDEHMGLSLAGLAPDAR [PRE5]	2.79 ± 0.18	3.08 ± 0.15	2.56 ± 0.12	2.76 ± 0.093
CEIHPSMILGVAASIIP [RPB2]	1.35 ± 0.11	1.42 ± 0.1	1.14 ± 0.15	1.35 ± 0.16
CESCSTILCTPTGGKAK [RPS27A]	1.93 ± 0.046	2.32 ± 0.046	2.1 ± 0.055	2.18 ± 0.037
CGDSIICNTLNIAKDLK [SMC1]	1.78 ± 0.079	1.66 ± 0.067	1.42 ± 0.12	2.12 ± 0.075
CGLMTVIAKLNHNQFEC [RPB2]	2.33 ± 0.09	2.35 ± 0.078	1.5 ± 0.12	1.7 ± 0.15
CIFGDAFDVDRAKSCGV [RPL1A]	3.01 ± 0.073	2.75 ± 0.084	2.57 ± 0.11	2.59 ± 0.081
CIIFMDEVDAIGGRRFS [RPT4]	2.38 ± 0.089	2.13 ± 0.075	2.88 ± 0.1	2.43 ± 0.099
CKKKEMSQYQSTMKENK [YIL149C/MLP2]	2.49 ± 0.088	2.76 ± 0.073	1.42 ± 0.23	2.55 ± 0.071
CLGIKDEEMLTSCTIPK [GAL11]	2.75 ± 0.075	2.98 ± 0.068	2.68 ± 0.049	3.14 ± 0.059
CLKRGWGHPTRMLLNLC [BRR2]	–	3.14 ± 0.14	3.23 ± 0.079	–
CLLSIPKSTKGKILTIK [YML103C/NUP188]	1.67 ± 0.053	1.87 ± 0.062	1.66 ± 0.11	1.97 ± 0.054
CNDEDKDLETLYNKIWT [ECM29]	3.04 ± 0.081	3.06 ± 0.065	2.44 ± 0.074	2.88 ± 0.037
CNERVPLSVATELMNRS [SRP72]	2.43 ± 0.033	2.52 ± 0.044	2.26 ± 0.052	2.19 ± 0.036
CPYCYKKRREYFPEGYN [SIR2]	2.43 ± 0.11	2.41 ± 0.16	2.61 ± 0.2	2.75 ± 0.069
